For experiment [1], the target named is T1, mature form virus-like particles of dengue virus serotype 2 (mD2VLP) (Dengue virus type 2, strain 16681 …, UniProt A0A173DS53).
T1 construct: also called mature DENV-2 VLP; pVD2i-C18S; copies: 60 +
Briefly: cryo-EM structure. To be noted: both partners purified.

For experiment [2], the target named is ZIKV VLP with E R193A (Zika virus). Briefly: ELISA.
Experiment [3] deals with ZIKV VLP with E T231A (Zika virus). Briefly: ELISA.
For experiment [4], the target named is DENV-1 virus-like particle (prM/E VLP) (dengue virus serotype 1).

B1: huMAb K8b expressed as full-length human IgG1 (K8b-IgG1) (antibody, V domains shown)
VH: QVQLVQPGAEVVKPGASVKLSCKTSGYTFTSNWMHWVKQAPGQGLEWIGEIDPSDSYTNYNQNFQGKAKLTVDKSTSTAYMEVSSLRSDDTAVYYCARGSNPYYYAMDYWGQGTSVTVSS
VL: EIVMMQSPLTLSLSPGERATLSCRASQSVSSNYLAWYQQRPGQAPRLLIYGVSSRATGVPVRFSGSGSGTDFTLTISRLEPEDFAVYYCQHYGGSLSWTFGQGTKVEIK
notes: also called pVCHIg-hG1-K8b + pVCLIg-hκ-K8b
As for B1, the “stoichiometry N” value in experiment [1] was 60 F(ab) arms per VLP of 60 E proteins.

B2: huMAb K5 expressed as full-length human IgG1 (K5-IgG1) (antibody, V domains shown)
VH: EVQLLESGAEVKKPGSSVKVSCQASGDTFSNSDINWVRQAPGQGLEWMGGIIPAYDTTNYARTFQGRVAITADKSTSTVYMELSRLRSEDTAVYYCATDQRDYFGLGNHFNAQHFWGQGTLVTVSS
VL: AIRMTQTPLSLSASVGDRVTITCRASQSISNYLNWYQQRPGKAPNLLIYTASNLHSGVPSRFSGSGSGTDFTLTISSLQPEDFATYYCQQSYSGGYTFGQGPSWEIK
With B2, the percent loss of binding relative to ZIKV WT VLP in experiment [2] and in experiment [3] was 70% in each case. Besides, in experiment [4], the FRμNT50, neutralisation of the prototype DENV-1 strain on Vero cells was found to be 0.771 µg/mL.

These data come from PMC10808242, “Antibodies from dengue patients with prior exposure to Japanese encephalitis virus are broadly neutralizing against Zika virus” (Communications Biology, 2024).
